Laboratory results published in publication PMC7870846, “Incorporation of sensing modalities into de novo designed fluorescence-activating proteins” (Nature Communications, 2021).

Tests used:
[1] = Ca2+-responsive mFAP Ca2+ titrations; assay type: binding; conditions: Ca2+ titration with excess DFHBI
Outline: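 Purified protein at 500 nM with 5.00 μM DFHBI titrated over eleven 10-fold CaCl2 dilutions plus a no-Ca2+ condition in high-salt Tev cleavage buffer; endpoint fluorescence at ex 484/em 508 nm, protein-free background subtracted. Triplicate means fit to a single-site isotherm, Hill coefficient 1, for Kd.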

[2] = Fluorescence intensity assays of mFAP variants; assay type: biochemical; conditions: neutral pH, DFHBI
Description: To measure fluorescence intensities of the phenolate form of chromophores, fluorescence was measured on a Synergy Neo2 hybrid multi-mode reader (BioTek) in flat bottom, black polystyrene, non-binding surface 96-well microplates (Corning 3650). Fluorescence intensity was measured in triplicate by exciting at λex = 484 nm and measuring fluorescence emission at λem = 505 nm (or λem = 511 nm for clones harboring the W27 mutation) (Supplementary Fig. 1g, h). The W27 mutation redshifts the peak emission wavelength from λem = ~505 nm to λem = ~511 nm, presumably due to the W27 indole ring donating a hydrogen bond to the imidazolinone moiety of the deprotonated state of DFHBI, which stabilizes the chromophore conjugated π–electron system in the excited state causing the redshift in emission. Fifteen microliters of small-scale purified protein[49] was combined with 185 μL of Na2HPO4-citrate (pH 7.36) buffer supplemented with 150 mM NaCl and 108 nM DFHBI for a final concentration of 100 nM DFHBI. In measuring the excitation spectra from λem = 525 nm of each clone in triplicate (Supplementary Fig. 1i), 30.0 μL of large-scale purified protein[49] was combined with 170 μL of 25.0 mM Tris (pH 8.00) supplemented with 100 mM NaCl and 914 nM DFHBI for a final concentration of 7.77 μM protein and 777 nM DFHBI. In measuring the fluorescence intensity at λex = 484 nm and λem = 509 nm of each clone in triplicate (Supplementary Fig. 1j), 30.0 μL of large-scale purified protein[49] was combined with 170 μL of 25.0 mM Tris (pH 8.00) supplemented with 100 mM NaCl and 653 nM DFHBI for a final concentration of 5.55 μM protein and 555 nM DFHBI. In measuring fluorescence intensity at λex = 468 nm and λem = 530 nm of each clone in technical triplicate (Supplementary Fig. 1k), 24.0 μL of 35.4 µM large-scale purified protein[49] was combined with 1.00 μL of 1.25 µM DFHBI or 1.00 μL of 1.25 µM DFHBI-1T (Lucerna) (from […] chromophore stock solutions dissolved in 0.5% DMSO and 99.5% high-salt Tev cleavage buffer [25.0 mM Tris, 100 mM NaCl, pH 8.00]) for final concentrations of 34.0 μM protein and 50.0 nM chromophore. The mFAP9–DFHBI complex had ~1.1-fold the fluorescence intensity of the mFAP10–DFHBI complex, and the mFAP9–DFHBI-1T complex had ~0.75-fold the fluorescence intensity of the mFAP10–DFHBI-1T complex (Supplementary Fig. 1k). In collecting fluorescence emission spectra by exciting fluorescence at λex = 484 nm and collecting fluorescence emission at λem = 495–650 nm (Supplementary Fig. 6b), and in measuring fluorescence endpoints in techincal triplicate at unique peak excitation and emission wavelengths (Supplementary Fig. 6c), 195 μL of large-scale purified protein[49] was combined with 5.00 μL of 25 mM Tris (pH 8.00) supplemented with 100 mM NaCl and 40.0 μM DFHBI for a final concentration of 10.0 μM protein and 1.00 μM DFHBI.
In measuring fluorescence intensity of small-scale purified proteins[49] (Supplementary Table 1), wells were excited at λex = 488 nm for DFHBI and DFHBI-1T and λex = 505 nm for DFHO, and fluorescence emission measured at λem = 510 nm for DFHBI and DFHBI-1T and λem = 545 nm for DFHO. […]

- Ca2+-responsiveness / allostery between DFHBI and Ca2+ binding [1]: lack of Ca^2+-responsiveness
B1: mFAP2b: mFAP2.5 with V67I, "b" for bright (protein)
chain: SRAAQLLPGTWQVTMTNEDGQTSQGQWHFQPRSPYTMDIVAQGTISDGRPIVGYGKATVKTPDTLDIDITYPSLGNIKAQGQITMDSPTQFKWDATTKGENDFHGRLTGTLQRQE
- brighter than mFAP2.4 [2]: ~ 1.3 fold
- brighter than mFAP2.5 [2]: ~ 1.2 fold
